Laboratory results: patent US20120219559A1 (Johns Hopkins, published 2012)

T1: human B7-H2Ig fusion protein (human, UniProt O75144 19-258)
T1 construct: Ig (Fc) part not given
T1 sequence: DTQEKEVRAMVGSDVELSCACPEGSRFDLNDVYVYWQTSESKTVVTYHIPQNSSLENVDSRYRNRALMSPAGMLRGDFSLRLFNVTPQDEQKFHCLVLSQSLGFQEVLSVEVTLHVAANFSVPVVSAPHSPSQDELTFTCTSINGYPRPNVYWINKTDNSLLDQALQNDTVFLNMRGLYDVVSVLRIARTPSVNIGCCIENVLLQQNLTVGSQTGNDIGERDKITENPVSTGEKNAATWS

T2: B7-DCIg (Homo sapiens, UniProt Q9BQ51)
T2 construct: Ig fusion protein purchased from R&D systems; also called human B7-DCIg fusion protein
T2 sequence (fusion protein, looked up): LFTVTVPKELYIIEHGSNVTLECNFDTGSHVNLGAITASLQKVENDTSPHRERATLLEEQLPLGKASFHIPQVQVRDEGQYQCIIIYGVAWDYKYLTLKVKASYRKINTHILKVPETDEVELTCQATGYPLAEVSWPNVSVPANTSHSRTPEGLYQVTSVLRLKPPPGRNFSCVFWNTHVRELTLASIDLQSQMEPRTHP

T3: human B7-1Ig fusion protein (human, UniProt P33681 35-242)
T3 construct: Bought from R&D Systems; Ig (Fc) part not given
T3 sequence (looked up): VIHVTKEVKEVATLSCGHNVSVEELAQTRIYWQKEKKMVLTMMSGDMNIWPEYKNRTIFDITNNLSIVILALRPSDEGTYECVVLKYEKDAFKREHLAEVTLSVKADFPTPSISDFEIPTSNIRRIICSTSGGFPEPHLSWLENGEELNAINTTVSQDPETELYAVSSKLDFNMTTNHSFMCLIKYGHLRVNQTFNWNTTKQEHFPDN

T4: human B7-H2, full length, expressed on cells (B7-H2+293T cells) (human, UniProt O75144 19-302)
T4 construct: This id also stands for endogenous B7-H2 on monocyte-derived dendritic cells in the functional rows; also called ICOSL; ICOSLG
T4 sequence: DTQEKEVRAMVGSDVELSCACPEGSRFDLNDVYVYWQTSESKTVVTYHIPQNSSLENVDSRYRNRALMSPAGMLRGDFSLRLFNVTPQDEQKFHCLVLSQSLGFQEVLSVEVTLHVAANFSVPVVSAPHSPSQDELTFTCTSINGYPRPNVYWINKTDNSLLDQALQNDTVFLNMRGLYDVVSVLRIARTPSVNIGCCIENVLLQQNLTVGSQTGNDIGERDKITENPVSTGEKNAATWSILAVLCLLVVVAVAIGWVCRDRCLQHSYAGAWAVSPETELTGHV

T5: human B7-2 (CD86, B70) expressed on 293T cells (human, UniProt P42081 24-329)
T5 construct: whole, on cells
T5 sequence (looked up): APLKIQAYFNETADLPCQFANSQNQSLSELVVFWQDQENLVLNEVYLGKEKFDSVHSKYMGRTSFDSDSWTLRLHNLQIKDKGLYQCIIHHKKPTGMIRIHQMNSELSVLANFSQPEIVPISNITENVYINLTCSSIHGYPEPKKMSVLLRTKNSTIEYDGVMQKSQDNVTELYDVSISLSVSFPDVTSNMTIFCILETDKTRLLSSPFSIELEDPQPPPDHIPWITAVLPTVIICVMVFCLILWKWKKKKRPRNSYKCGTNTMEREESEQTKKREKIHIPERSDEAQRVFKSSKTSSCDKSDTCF

T6: human B7-DC expressed on 293T cells (human, UniProt Q9BQ51 20-273)
T6 construct: whole, on cells
T6 sequence (looked up): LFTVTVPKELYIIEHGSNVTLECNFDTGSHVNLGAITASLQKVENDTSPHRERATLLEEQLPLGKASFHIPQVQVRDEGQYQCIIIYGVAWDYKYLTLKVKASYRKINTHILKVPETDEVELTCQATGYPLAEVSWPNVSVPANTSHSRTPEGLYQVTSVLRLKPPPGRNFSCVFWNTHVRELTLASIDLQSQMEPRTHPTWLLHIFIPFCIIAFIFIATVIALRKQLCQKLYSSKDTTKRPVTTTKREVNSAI

T7: human B7-1 (CD80) expressed on 293T cells (human, UniProt P33681 35-288)
T7 construct: whole, on cells
T7 sequence (looked up): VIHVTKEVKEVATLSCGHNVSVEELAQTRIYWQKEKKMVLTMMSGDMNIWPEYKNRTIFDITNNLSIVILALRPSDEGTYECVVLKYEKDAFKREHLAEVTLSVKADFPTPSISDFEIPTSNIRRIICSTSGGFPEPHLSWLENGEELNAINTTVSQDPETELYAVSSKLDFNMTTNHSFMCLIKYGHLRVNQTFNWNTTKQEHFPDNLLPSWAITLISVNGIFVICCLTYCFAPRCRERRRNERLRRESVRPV

T8: human B7-H4 expressed on 293T cells (human, UniProt Q7Z7D3 25-282)
T8 construct: whole, on cells
T8 sequence (looked up): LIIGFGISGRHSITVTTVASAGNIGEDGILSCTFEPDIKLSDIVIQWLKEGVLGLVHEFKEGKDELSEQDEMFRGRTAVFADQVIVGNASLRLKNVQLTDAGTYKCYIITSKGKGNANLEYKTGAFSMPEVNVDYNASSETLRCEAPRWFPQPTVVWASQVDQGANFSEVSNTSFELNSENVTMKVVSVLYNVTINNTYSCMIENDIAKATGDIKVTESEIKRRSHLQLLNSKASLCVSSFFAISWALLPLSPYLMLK

T9: human B7-H3, 2Ig form, expressed on 293T cells (human, UniProt Q5ZPR3-2 29-316)
T9 construct: whole, on cells
T9 sequence (looked up): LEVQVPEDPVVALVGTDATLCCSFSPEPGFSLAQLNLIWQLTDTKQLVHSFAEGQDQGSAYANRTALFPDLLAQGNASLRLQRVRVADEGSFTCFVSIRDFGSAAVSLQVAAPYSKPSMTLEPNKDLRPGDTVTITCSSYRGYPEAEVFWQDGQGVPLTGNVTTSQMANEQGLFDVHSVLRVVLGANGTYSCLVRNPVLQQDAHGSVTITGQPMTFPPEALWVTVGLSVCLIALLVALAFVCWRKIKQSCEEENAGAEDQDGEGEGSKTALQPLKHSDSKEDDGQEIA

T10: human B7-H3, 4Ig form, expressed on 293T cells (human, UniProt Q5ZPR3 29-534)
T10 construct: whole, on cells
T10 sequence (looked up): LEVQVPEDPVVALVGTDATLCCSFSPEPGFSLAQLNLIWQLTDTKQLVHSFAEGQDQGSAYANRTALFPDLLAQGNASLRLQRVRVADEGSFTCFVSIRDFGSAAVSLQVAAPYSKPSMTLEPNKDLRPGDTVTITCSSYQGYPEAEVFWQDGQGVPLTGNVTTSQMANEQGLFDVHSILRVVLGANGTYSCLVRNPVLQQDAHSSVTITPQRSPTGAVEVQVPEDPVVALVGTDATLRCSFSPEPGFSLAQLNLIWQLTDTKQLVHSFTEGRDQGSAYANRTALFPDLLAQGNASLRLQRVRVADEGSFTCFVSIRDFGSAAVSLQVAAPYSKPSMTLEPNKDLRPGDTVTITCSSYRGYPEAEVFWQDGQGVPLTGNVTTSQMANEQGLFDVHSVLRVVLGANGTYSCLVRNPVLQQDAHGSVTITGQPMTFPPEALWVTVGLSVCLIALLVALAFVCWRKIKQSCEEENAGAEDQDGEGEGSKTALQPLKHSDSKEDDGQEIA

T11: human B7-H7, full length, expressed on transfected cells (B7-H7+ cells) (human, UniProt Q9UM44 23-414)
T11 construct: also called HHLA2
T11 sequence: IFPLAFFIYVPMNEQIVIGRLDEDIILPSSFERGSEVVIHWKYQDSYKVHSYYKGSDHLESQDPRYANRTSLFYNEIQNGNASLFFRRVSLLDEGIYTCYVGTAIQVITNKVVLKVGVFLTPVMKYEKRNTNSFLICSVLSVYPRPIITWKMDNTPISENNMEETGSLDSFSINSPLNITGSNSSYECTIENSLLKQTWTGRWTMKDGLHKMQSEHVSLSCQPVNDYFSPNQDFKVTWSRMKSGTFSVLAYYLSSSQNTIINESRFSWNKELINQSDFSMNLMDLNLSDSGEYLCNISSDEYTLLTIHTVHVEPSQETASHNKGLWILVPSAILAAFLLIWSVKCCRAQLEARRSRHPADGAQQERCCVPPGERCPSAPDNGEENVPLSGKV

B1: human ICOS, full length, expressed on cells (ICOS+293T cells) (receptor)
chain: EINGSANYEMFIFHNGGVQILCKYPDIVQQFKMQLLKGGQILCDLTKTKGSGNTVSIKSLKFCHSQLSNNSVSFFLYNLDHSHANYYFCNLSIFDPPPFKVTLTGGYLHIYESQLCCQLKFWLPIGCAAFVVVCILGCILICWLTKKKYSSSVHDPNGEYMFMRAVNTAKKSRLTDVTL
notes: This id also stands for ICOS on human T cells in the functional rows
B2: human B7-2Ig fusion protein (Fc fusion, UniProt P42081 26-245, looked up)
chain: LKIQAYFNETADLPCQFANSQNQSLSELVVFWQDQENLVLNEVYLGKEKFDSVHSKYMGRTSFDSDSWTLRLHNLQIKDKGLYQCIIHHKKPTGMIRIHQMNSELSVLANFSQPEIVPISNITENVYINLTCSSIHGYPEPKKMSVLLRTKNSTIEYDGVMQKSQDNVTELYDVSISLSVSFPDVTSNMTIFCILETDKTRLLSSPFSIELEDPQPPPDH
notes: Bought from R&D Systems; Ig (Fc) part not given
B3: human B7-H7CRIg fusion protein (Fc fusion)
chain: LSVQQGPNLLQVRQGSQATLVCQVDQATAWERLRVKWTKDGAILCQPYITNGSLSLGVCGPQGRLSWQAPSHLTLQLDPVSLNHSGAYVCWAAVEIPELEEAEGNITRLFVDPDDPTQNRNRIASFPG
notes: also called B7-H67CRIg; not shown: Ig Fc tag; made from pMIgV or pHIgV plasmid

What was measured:
[1] = target: T1, human B7-H2Ig fusion protein; experiment: flow cytometry on 293T cells transfected with human ICOS
B7-H1Ig = target: T12, B7-H1Ig (Homo sapiens, UniProt Q9NZQ7); experiment: CDS well image, 293T cells transfected with the human gene, stained with the human fusion protein
T12 construct: Ig fusion protein purchased from R&D systems; also called human B7-H1Ig fusion protein
T12 sequence (Q9NZQ7 19-239 limits assumed): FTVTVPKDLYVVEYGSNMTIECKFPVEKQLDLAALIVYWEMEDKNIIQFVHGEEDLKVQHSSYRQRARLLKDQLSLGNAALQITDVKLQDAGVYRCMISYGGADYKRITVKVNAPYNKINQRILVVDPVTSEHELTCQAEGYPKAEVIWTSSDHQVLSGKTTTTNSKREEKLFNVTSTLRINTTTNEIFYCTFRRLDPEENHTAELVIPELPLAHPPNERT

B7-DCIg = target: T2, B7-DCIg; experiment: as above
[2] = target: T3, human B7-1Ig fusion protein; experiment: as above
[3] = target: B2; experiment: as above
[4] = target: T4, human B7-H2, full length, expressed on …; experiment: flow cytometry on 293T cells transfected with full length human B7-H2; B7-2Ig alone
[5] = target: T5, human B7-2 (CD86, B70) expressed on …; experiment: CDS well image, 293T cells transfected with the human gene, stained with the human fusion protein
[6] = target: T13, human B7-H1 expressed on 293T cells (human, UniProt Q9NZQ7 19-290); experiment: as above
T13 construct: whole, on cells
T13 sequence (Q9NZQ7 19-290): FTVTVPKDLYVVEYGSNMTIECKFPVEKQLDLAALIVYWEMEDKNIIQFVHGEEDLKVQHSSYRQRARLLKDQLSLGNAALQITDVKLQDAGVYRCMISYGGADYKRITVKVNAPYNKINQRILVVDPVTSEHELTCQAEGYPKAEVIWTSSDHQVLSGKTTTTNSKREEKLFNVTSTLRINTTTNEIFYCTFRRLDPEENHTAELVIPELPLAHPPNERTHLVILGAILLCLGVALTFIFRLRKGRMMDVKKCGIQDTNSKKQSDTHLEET

[7] = target: T6, human B7-DC expressed on 293T cells; experiment: as above
[8] = target: T7, human B7-1 (CD80) expressed on 293T …; experiment: as above
[9] = target: T7, human B7-1 (CD80) expressed on 293T …; experiment: flow cytometry on 293T cells transfected with B7-1
[10] = target: T5, human B7-2 (CD86, B70) expressed on …; experiment: flow cytometry on 293T cells transfected with B7-2
[11] = target: T6, human B7-DC expressed on 293T cells; experiment: flow cytometry on 293T cells transfected with B7-DC
[12] = target: T13, human B7-H1 expressed on 293T cells; experiment: flow cytometry on 293T cells transfected with B7-H1
[13] = target: T4, human B7-H2, full length, expressed on …; experiment: flow cytometry on 293T cells transfected with B7-H2
[14] = target: T8, human B7-H4 expressed on 293T cells; experiment: flow cytometry on 293T cells transfected with B7-H4
[15] = target: T9, human B7-H3, 2Ig form, expressed on …; experiment: flow cytometry on 293T cells transfected with B7-H3 (2Ig)
[16] = target: T10, human B7-H3, 4Ig form, expressed on …; experiment: flow cytometry on 293T cells transfected with B7-H3 (4Ig)
[17] = target: T11, human B7-H7, full length, expressed on …; experiment: flow cytometry on B7-H7 transfected cells (sheet: B7-H7+ 293T; legend: CHO cells); B7-H7CRIg at 10 µg/ml

Binder: B1
binding result [1]: binds
binding result (B7-H1Ig): no binding
binding result (B7-DCIg): no binding
binding result [2]: no binding
binding result [3]: no binding

Binder: B2
binding result [4]: no binding
binding result [5]: no binding
binding result [6]: no binding
binding result [7]: no binding
binding result [8]: no binding

Binder: B3
binding result [9]: no binding (tested: 10 µg/ml)
binding result [10]: no binding (tested: 10 µg/ml)
binding result [11]: no binding (tested: 10 µg/ml)
binding result [12]: no binding (tested: 10 µg/ml)
binding result [13]: no binding (tested: 10 µg/ml)
binding result [14]: no binding (tested: 10 µg/ml)
binding result [15]: no binding (tested: 10 µg/ml)
binding result [16]: no binding (tested: 10 µg/ml)
binding result [17]: binds
